Measured values published in PMC10648297.

Target: 2-cysteine (Cys) peroxiredoxin A, recombinant mature wild type, tag-free (Arabidopsis)
Assay: LC/MS of the intact protein (deconvoluted masses); oxidised 2CPA with 0 to 19.2 mM GSH and NEM, 50 mM Tris pH 7.5, 25 °C; C4 column, acetonitrile gradient with 0.1% HCOOH; shows disulfide-linked dimers

stoichiometry N: 2
Substance: 2-cysteine (Cys) peroxiredoxin A, recombinant mature wild type, tag-free (enzyme)
